In paper PMC6126716 one finds stoichiometry N (Hb heterodimers per Hp heterotetramer) data, which are given here for one substance.

In this experiment the target is human asialo-haptoglobin, phenotype 1-1 (Hp heterotetramer of two α1 and two β-subunits) (human) (UniProt P00738). Description: native MS.

“human hemoglobin holo-heterodimer (αHb and βHb) (from UniProt P69905 1-142; P68871 1-147) (complex)” displayed a stoichiometry N (Hb heterodimers per Hp heterotetramer) of 2.
